In experiment [1] the target is T1, monkey IGF-1R (on COS-7 cells) (African green monkey).
T1 construct: whole, on cells
The experiment can be described thus: FACS titration, Cos-7. Here is the method: (§1) The binding properties of the humanized variants were evaluated by FACS analyses on the human MCF-7 breast adenocarcinoma cell line and the monkey cell line Cos-7 using increasing antibody concentrations. For that purpose, cells (1×10⁶ cells/ml) were incubated with anti-IGF-1R humanized antibodies for 20 min. at 4° C. in FACS buffer (PBS, 0.1% BSA, 0.01% NaN3). They were then washed 3 times and incubated with the appropriate secondary antibody coupled with Alexa 488 for 20 additional minutes at 4° C. in the dark before being washed 3 times in FACS buffer. The binding of anti-IGF-1R antibodies was immediately performed on viable cells which were identified using propidium iodide (that stains dead cells). The EC₅₀ of binding expressed in molarity (M) was calculated using a nonlinear regression analysis (GraphPad Prims 4.0).

Experiment [2] addresses T2, human IGF-1R (native, on cells) (human, UniProt P08069 31-1367).
T2 construct: also called hIGF-1R; native IGF-1R on MCF-7 cells
As to the kind of experiment: FACS titration, MCF-7. Here is the method: as §1

This is an account of results in patent US20170267766A1 (PIERRE FABRE MEDICAMENT, published 2017).

Usually EC50 stands for the concentration that produces a half-maximal response.

B1: hz208F2 H070/L018 (antibody, human IgG1, kappa, V domains shown)
VH: QVQLVQSGAEVKKPGASVKVSCKASGYTFTSYYMHWVRQAPGQGLEWMGWIWPGDGSTKYAQKFQGRVTMTRDTSTSTVYMELSSLRSEDTAVYYCASPMITPNYAMDYWGQGTLVTVSS
VL: DIQMTQSPSSLSASVGDRVTITCRASQDISKYLNWYQQKPGKAPKLLIYYTSRLQSGVPSRFSGRGSGTDYSLTISSLQPEDFATYFCQQGSTLPYTFGGGTKVEIKR
notes: humanized 208F2 variant
As for B1, the EC50 in experiment [1] is 0.73 nM; in experiment [2] it was 0.46 nM.

B2: hz208F2 H049/L018 (antibody, human IgG1, kappa, V domains shown)
VH: QVQLVQSGAEVKKPGASVKVSCKASGYTFTSYYMHWVRQAPGQGLEWMGWIWPGDGSTKYAQKFQGRVTMTRDKSSSTVYMELSSLRSEDTAVYYCASPMITPNYAMDYWGQGTLVTVSS
VL: DIQMTQSPSSLSASVGDRVTITCRASQDISKYLNWYQQKPGKAPKLLIYYTSRLQSGVPSRFSGRGSGTDYSLTISSLQPEDFATYFCQQGSTLPYTFGGGTKVEIKR
notes: humanized 208F2 variant
For B2, the EC50 in experiment [1] was 0.69 nM; in experiment [2], 0.49 nM.

B3: hz208F2 H047/L018 (antibody, human IgG1, kappa, V domains shown)
VH: QVQLVQSGAEVKKPGASVKVSCKASGYTFTSYYIHWVRQAPGQGLEWMGWIWPGDGSTKYAQKFQGRVTMTRDTSSNTVYMELSSLRSEDTAVYYCASPMITPNYAMDYWGQGTLVTVSS
VL: DIQMTQSPSSLSASVGDRVTITCRASQDISKYLNWYQQKPGKAPKLLIYYTSRLQSGVPSRFSGRGSGTDYSLTISSLQPEDFATYFCQQGSTLPYTFGGGTKVEIKR
notes: humanized 208F2 variant
For B3, the concentration for a half-maximal effect (EC50) in experiment [1] was 0.92 nM; in experiment [2], 0.77 nM.

B4: hz208F2 H049/L021 (antibody, human IgG1, kappa, V domains shown)
VH: QVQLVQSGAEVKKPGASVKVSCKASGYTFTSYYMHWVRQAPGQGLEWMGWIWPGDGSTKYAQKFQGRVTMTRDKSSSTVYMELSSLRSEDTAVYYCASPMITPNYAMDYWGQGTLVTVSS
VL: DIQMTQSPSSLSASVGDRVTITCRASQDISKYLNWYQQKPGKAPKLLIYYTSRLHSGVPSRFSGRGSGTDFSLTISSLQPEDFATYFCQQGSTLPYTFGGGTKVEIKR
notes: humanized 208F2 variant
Consider B4, for which, in experiment [1], the response was half-maximal at 0.85 nM (EC50).

B5: hz208F2 H037/L018 (antibody, human IgG1, kappa, V domains shown)
VH: QVQLVQSGAEVKKPGASVKVSCKASGYTFTSYYMHWVRQAPGQGLEWMGWIWPGDGSTKYAQKFQGRVTMTRDKSSSTVYMELSSLRSEDTAVYFCASPMITPNYAMDYWGQGTLVTVSS
VL: DIQMTQSPSSLSASVGDRVTITCRASQDISKYLNWYQQKPGKAPKLLIYYTSRLQSGVPSRFSGRGSGTDYSLTISSLQPEDFATYFCQQGSTLPYTFGGGTKVEIKR
notes: humanized 208F2 variant
For the molecule B5, the values for the concentration for a half-maximal effect (EC50) in experiment [1] and in experiment [2] were 0.74 nM and 0.49 nM, respectively.

B6: hz208F2 H037/L021 (antibody, human IgG1, kappa, V domains shown)
VH: QVQLVQSGAEVKKPGASVKVSCKASGYTFTSYYMHWVRQAPGQGLEWMGWIWPGDGSTKYAQKFQGRVTMTRDKSSSTVYMELSSLRSEDTAVYFCASPMITPNYAMDYWGQGTLVTVSS
VL: DIQMTQSPSSLSASVGDRVTITCRASQDISKYLNWYQQKPGKAPKLLIYYTSRLHSGVPSRFSGRGSGTDFSLTISSLQPEDFATYFCQQGSTLPYTFGGGTKVEIKR
notes: humanized 208F2 variant
Turning to B6, the EC50 in experiment [1] was 0.82 nM; in experiment [2], 0.48 nM.

B7: hz208F2 H051/L018 (antibody, human IgG1, kappa, V domains shown)
VH: QVQLVQSGAEVKKPGASVKVSCKASGYTFTSYYMHWVRQAPGQGLEWMGWIWPGDGSTKYAQKFQGRVTMTRDTSSNTVYMELSSLRSEDTAVYFCASPMITPNYAMDYWGQGTLVTVSS
VL: DIQMTQSPSSLSASVGDRVTITCRASQDISKYLNWYQQKPGKAPKLLIYYTSRLQSGVPSRFSGRGSGTDYSLTISSLQPEDFATYFCQQGSTLPYTFGGGTKVEIKR
notes: humanized 208F2 variant
B7: the EC50 is 0.72 nM in experiment [1] and 0.57 nM in experiment [2].

B8: hz208F2 H076/L021 (antibody, human IgG1, kappa, V domains shown)
VH: QVQLVQSGAEVKKPGASVKVSCKASGYTFTSYYIHWVRQAPGQGLEWMGWIWPGDGSTKYAQKFQGRVTMTRDTSTSTVYMELSSLRSEDTAVYYCASPMITPNYAMDYWGQGTLVTVSS
VL: DIQMTQSPSSLSASVGDRVTITCRASQDISKYLNWYQQKPGKAPKLLIYYTSRLHSGVPSRFSGRGSGTDFSLTISSLQPEDFATYFCQQGSTLPYTFGGGTKVEIKR
notes: humanized 208F2 variant
On to B8, for which the EC50 in experiment [1] turned out to be 1.1 nM.
